System: IgG Fc dimer protein, P01857-1
Settings: printed ggAGG[2'-F-rU]Gc[2'-F-rU]ccgaaaGgaa[2'-F-rC][2'-F-rU]cc (lowercase DNA, uppercase RNA); about 10 oxanine nucleotides added at 3' end; at least one aptamer per Fc dimer, one or two observed; HEPES pH 8.4, Mg, K, 37 C, 1 day

## GGAGGTGCTCCGAAAGGAACTCC [Fc RNA aptamer Apt8-2-oxanine]
  activity (% conjugation): > 98

— patent US20240424107
